Legend:
[1] = target: mouse-human chimeric mAb 101F; assay: ELISA
[2] = target: D25; assay: ELISA
[3] = target: D25; conditions: cells fixed with 4% (vol/vol) paraformaldehyde 16 h after transfection; read off a plot
[4] = target: palivizumab; conditions: cells fixed with 4% (vol/vol) paraformaldehyde 16 h after transfection; read off a plot

Row | Substance | EC50 [1] | percent of parent [3] | percent of parent [4] | further results
1 | post-fusion RSV A2 F protein G430A | 0.035 µg/mL | – | – | –
2 | post-fusion RSV A2 F protein I432A | 0.066 µg/mL | – | – | –
3 | post-fusion RSV A2 F protein R429A | 0.026 µg/mL | – | – | –
4 | pre-fusion RSV A2 F SC-TM protein G430A | 0.97 µg/mL | – | – | –
5 | pre-fusion RSV A2 F SC-TM protein R429A | – | – | – | EC50 [2]: 0.023 µg/mL
6 | wild-type RSV F (RSV-A2) expressed on HEK-293T cells G430A | – | 310 % WT | 400 % WT | –
7 | wild-type RSV F (RSV-A2) expressed on HEK-293T cells I432A | – | 240 % WT | 260 % WT | –
8 | wild-type RSV F (RSV-A2) expressed on HEK-293T cells R429A | – | 390 % WT | 310 % WT | –
